In patent US20230135471A1, “UBIQUITIN VARIANTS WITH IMPROVED AFFINITY FOR 53BP1” (Integrated DNA Technologies, Inc., priority 2021, published 2023):

Molecular target: 53BP1 fragment (a.a. 1221-1718) fused to an adenylate cyclase fragment (two-hybrid) (UniProt Q12888)
Test: not given

Q: For “i53-adenylate cyclase fragment fusion protein (two-hybrid) (designed binder)”, which percent GFP-positive E. coli cells, two-hybrid reporter, gate P5 is on record?
A: 9%

Q: How did the % GFP+ turn out when i53-DM (designed binder) was run?
A: 0.1%

Q: And the percent GFP-positive E. coli cells, two-hybrid reporter, gate P5?
A: 0.1%

Molecular target: 53BP1 fragment (a.a. 1221-1718) fused to an adenylate cyclase fragment (two-hybrid) (UniProt Q12888)
Test: cell-based or functional assay

Q: What does the source list for “i53-adenylate cyclase fragment fusion protein (two-hybrid) (designed binder)”?
A: GFP positive population, high selection pressure: 3%; GFP positive population, low selection pressure: 17%; Percent GFP Positive Rep 1: 9%; Percent GFP Positive Rep 2: 7.6%; Percent GFP Positive Rep 3: 11.8%

Q: For “i53 + N60E two-hybrid fusion (designed binder)”, which Experiment 1 Average Enrichment is on record?
A: 0.66 log2

Q: What about the Experiment 1 Rep 1 Enrichment of the same substance?
A: 0.9 log2

Q: And the Experiment 1 Rep 2 Enrichment?
A: 0.43 log2

Q: What about the Experiment 2 Average Enrichment of the same substance?
A: 0.25 log2

Q: And the Experiment 2 Rep 1 Enrichment?
A: 0.13 log2

Q: What about the Experiment 2 Rep 2 Enrichment of the same substance?
A: 0.38 log2

Q: What does the source list for “i53 + H68E two-hybrid fusion (designed binder)”?
A: Experiment 1 Average Enrichment: -1.08 log2; Experiment 1 Rep 1 Enrichment: -0.69 log2; Experiment 1 Rep 2 Enrichment: -1.48 log2; Experiment 2 Average Enrichment: 0.1 log2; Experiment 2 Rep 1 Enrichment: 0.33 log2; Experiment 2 Rep 2 Enrichment: -0.13 log2

Q: With “i53 + P38I two-hybrid fusion (designed binder)” as the substance, how does the Experiment 1 Average Enrichment read?
A: 0.66 log2

Q: And the Experiment 1 Rep 1 Enrichment?
A: 0.4 log2

Q: What about the Experiment 1 Rep 2 Enrichment of the same substance?
A: 0.92 log2

Q: What about the Experiment 2 Average Enrichment of the same substance?
A: 0.64 log2

Q: And the Experiment 2 Rep 1 Enrichment?
A: 1.62 log2

Q: What about the Experiment 2 Rep 2 Enrichment of the same substance?
A: -0.34 log2

Q: “i53 + D39Q two-hybrid fusion (designed binder)” was tested. Which Experiment 1 Average Enrichment did it give?
A: -2.78 log2

Q: And the Experiment 1 Rep 1 Enrichment?
A: -3.1 log2

Q: And the Experiment 1 Rep 2 Enrichment?
A: -2.46 log2

Q: And the Experiment 2 Average Enrichment?
A: 0.03 log2

Q: And the Experiment 2 Rep 1 Enrichment?
A: -0.45 log2

Q: What about the Experiment 2 Rep 2 Enrichment of the same substance?
A: 0.51 log2

Q: For “i53 + S65D two-hybrid fusion (designed binder)”, which Experiment 1 Average Enrichment is on record?
A: 0.36 log2

Q: What about the Experiment 1 Rep 1 Enrichment of the same substance?
A: 0.02 log2

Q: And the Experiment 1 Rep 2 Enrichment?
A: 0.7 log2

Q: What about the Experiment 2 Average Enrichment of the same substance?
A: 0.85 log2

Q: And the Experiment 2 Rep 1 Enrichment?
A: 0.61 log2

Q: What about the Experiment 2 Rep 2 Enrichment of the same substance?
A: 1.1 log2

Q: What does the source list for “i53 + R74K two-hybrid fusion (designed binder)”?
A: Experiment 1 Average Enrichment: 0.12 log2; Experiment 1 Rep 1 Enrichment: 0.04 log2; Experiment 1 Rep 2 Enrichment: 0.21 log2; Experiment 2 Average Enrichment: 0.13 log2; Experiment 2 Rep 1 Enrichment: 0.1 log2; Experiment 2 Rep 2 Enrichment: 0.17 log2

Q: “i53 + S49P two-hybrid fusion (designed binder)” was tested. Which Experiment 1 Average Enrichment did it give?
A: 0.78 log2

Q: And the Experiment 1 Rep 1 Enrichment?
A: 0.65 log2

Q: What about the Experiment 1 Rep 2 Enrichment of the same substance?
A: 0.91 log2

Q: And the Experiment 2 Average Enrichment?
A: 0.58 log2

Q: What about the Experiment 2 Rep 1 Enrichment of the same substance?
A: 0.71 log2

Q: What about the Experiment 2 Rep 2 Enrichment of the same substance?
A: 0.44 log2
